The text below walks through data of PMC4705663.

Data set [1] has as its system BRPF1 PZP domain. Kind of data set: HI-FI FRET. Conditions: 200 mM NaCl, HI-FI FRET: 25 mM Tris pH 7.5, 200 mM NaCl, 0.01% NP40 and CHAPS, EMSA: 25 mM Tris-HCl pH 7.5, 150 mM NaCl, 5 mM DTT, +/-10% glycerol, RT 30 min, NMR: 25 mM ….
Data set [2] concerns the target histone H3 tail H3 tail (Homo sapiens) (UniProt P68431). Conditions: cited from earlier work.
Data set [3] deals with Atto647N-labeled NCP165 (Xenopus octamer labeled at H4E63C, 165 bp 601 DNA) (Xenopus). Briefly: FRET or BRET; HIFI-FRET Job plot (continuous variation); Oregon Green 488-PZP donor and Atto647N-NCP165 acceptor; total concentration of reactants constant at 1 μM, 50 nM steps. (In general: Bioluminescence resonance energy transfer reports proximity on the nanometre scale.)
The subject of the next data set is LexA. Kind of data set: FRET. The settings on record: LexA titration; S1/2 of nucleosome unwrapping, 75 mM NaCl; HI-FI FRET: 25 mM Tris pH 7.5, 200 mM NaCl, 0.01% NP40 and CHAPS; EMSA: 25 mM Tris-HCl pH 7.5, 150 mM NaCl, 5 mM DTT, +/-10% glycerol, RT 30 min; NMR: 25 mM …. Background: A gel shift assay detects complexes by their altered migration in electrophoresis.

The test system of data set [4] is BRPF1 PZP domain. Kind of data set: FRET. The settings on record: with LexA fixed at its S1/2 (2 uM); HI-FI FRET: 25 mM Tris pH 7.5, 200 mM NaCl, 0.01% NP40 and CHAPS; EMSA: 25 mM Tris-HCl pH 7.5, 150 mM NaCl, 5 mM DTT, +/-10% glycerol, RT 30 min; NMR: 25 mM ….
Data set [5] concerns the target NCP165, mononucleosome assembled with unlabeled Xenopus octamer on 165 bp 601 DNA (Xenopus). Kind of data set: AUC; sedimentation velocity; unlabeled NCP165 incubated with increasing molar ratios of PZP overnight at 4°C; 20 mM Tris 7.5, 50 mM NaCl, 2 mM arginine; 20°C, 40 000 rpm; free components also run alone.
Data set [6] has as its target Oregon Green 488-labeled BRPF1 PZP domain (UniProt P55201). Briefly: FRET or BRET; HIFI-FRET titration; Atto647N-labeled mononucleosomes titrated against three concentrations of Oregon Green labeled PZP; 25 mM Tris 7.5, 200 mM NaCl, 0.01% NP40 and CHAPS; quadratic fit; apparent Kd.

With NCP165, the Kd in the data set with BRPF1 PZP domain [1] (apparent Kd) turned out to be 273 nM.

As for BRPF1 PZP PZP (from UniProt P55201), in data set [2], the Kd was 12000 nM.

For “Oregon Green 488-labeled BRPF1 PZP domain (from UniProt P55201 267-454) (domain or fragment)”, the stoichiometry N (usually a count of units in the complex or per binding partner) in data set [3] came to 1.8.

Consider 601L Cy3-Cy5 NCP with LexA site, for which the K half in the data set with LexA was 2000 nM; in the data set on BRPF1 PZP domain [4] it was 4 µM.

On to NCP147 (FRET), for which the Kd in the data set on BRPF1 PZP domain [1] (apparent, curve did not plateau) is more than 1000 nM.

Regarding “BRPF1 PZP domain (amino acids 267–454) (from UniProt P55201 267-454) (domain or fragment)”, the stoichiometry N in data set [5] worked out at 2.

Turning to “Atto647N-labeled NCP147 (Xenopus octamer labeled at H4E63C, 147 bp 601 DNA) (complex)”, the Kd in data set [6] is more than 1000 nM.

“Atto647N-labeled NCP165 (Xenopus octamer labeled at H4E63C, 165 bp 601 DNA) (complex)”: in data set [6], the Kd came out at 273 nM.
